The text below walks through data of paper PMC10416611, “Overexpression of AHL proteins enhances root hair production by altering the transcription of RHD6‐downstream genes”.

Data set [1] concerns the target T1, MBP-AHL28 (Arabidopsis thaliana, UniProt Q9M9R4 1-206).
T1 sequence: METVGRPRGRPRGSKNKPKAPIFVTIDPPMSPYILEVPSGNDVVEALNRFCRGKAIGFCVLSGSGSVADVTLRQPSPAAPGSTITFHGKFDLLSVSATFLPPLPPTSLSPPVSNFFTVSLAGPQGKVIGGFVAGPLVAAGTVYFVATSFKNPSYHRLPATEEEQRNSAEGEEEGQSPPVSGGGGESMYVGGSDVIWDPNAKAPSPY
The data set can be described thus: EMSA; 1.5 ug protein, 1 uM probe; reduced by unlabeled probe; EMSA as in Sun et al. 2016; buffer, salt, pH and temperature not given; FAM-labeled probe 1 uM (Fig. S6). The note with it: protein: recombinant; tags: N-terminal MBP; label: FAM; blunt. Background: A gel shift assay detects complexes by their altered migration in electrophoresis.

Data set [2] has as its target MBP-AHL17-His (Arabidopsis thaliana, UniProt Q9LTA2 1-276). Briefly: EMSA; reduced by unlabeled probe; EMSA as in Sun et al. 2016; buffer, salt, pH and temperature not given; FAM-labeled probe 1 uM (Fig. S6). The note with it: protein: recombinant; tags: N-terminal MBP; C-terminal 6xHis; label: FAM; blunt.

B1: COW1 promoter probe (dsDNA)
DNA 1: TTTCTCTCATATTTAATTTATTTACTTAGAAA
DNA 2: TTTCTAAGTAAATAAATTAAATATGAGAGAAA
As to B1, the binding result in data set [1] and in data set [2] was “binds” throughout.

B2: PRP3 promoter probe (dsDNA)
DNA 1: GTCCAAATATTTATATTATAAGATACATTTTAATATTTAATTATGATTTAGTAGA
DNA 2: TCTACTAAATCATAATTAAATATTAAAATGTATCTTATAATATAAATATTTGGAC
Consider B2, for which the binding result in data set [1] and in data set [2] was “binds” in each case.
